From the supplement of paper PMC12764529
± gives the half width of the 95% confidence interval.

Legend:
[1] = folding stability dG unfold from chymotrypsin proteolysis; higher = more stable
Method in brief: (§1)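 Only designs with AlphaFold2 dimer inter-PAE above 15 were retained; each was a mini-protein under 80 residues with no cysteine, in a PA-tagged cDNA display construct. After digestion with trypsin and chymotrypsin and sequencing, K50 was inferred by Bayesian fitting of counts, and unfolding free energy was derived per protease or combined against a sequence-predicted unfolded-state K50 and a shared folded-state K50.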

[2] = folding stability dG unfold (combined trypsin and chymotrypsin); higher = more stable
Method in brief: as §1

[3] = folding stability dG unfold from trypsin proteolysis; higher = more stable
Method in brief: as §1

| Sequence | folding stability dG unfold [1] | folding stability dG unfold [2] | folding stability dG unfold [3] |
| --- | --- | --- | --- |
| SAGGKIIAEGEFELEDGYVVRVKVEYDEETGELRVEVEVFEVEVELPEVEVKREFSDEELTEEEKEASAGGS [r8_461_TrROS_Hall] | 1.77 ± 0.17 kcal/mol | 1.39 ± 0.25 kcal/mol | 0.897 ± 0.19 kcal/mol |
| KLKFKVKIKNPKTNETVEVEVELNEDGTVTVKVNGKLIAKFKIVAKPKPKVETKKVKDANGNEKTYKKVKFS [r1_496_TrROS_Hall] | 2.41 ± 0.27 kcal/mol | 1.91 ± 0.41 kcal/mol | 1.15 ± 0.12 kcal/mol |
| SAGGSMRLVKITVTTLEPSAEAIAAGAPTPVTLIEREVSSEEEVEEFIKSLPPNVEVSVERLPPPASAGGSA [r2_25_JUSTAS] | 2.16 ± 0.03 kcal/mol | 2.04 ± 0.12 kcal/mol | 1.66 ± 0.11 kcal/mol |
| SAGPLPEDVAAGKPVDVEAPIPLRRKDGDLLAVFPITGPMTVKELLEVLEAIRERARELDLPPVEDLDRSAG [r5_606_TrMRF] | -0.268 ± 0.21 kcal/mol | 0.181 ± 0.065 kcal/mol | 0.36 ± 0.047 kcal/mol |
| SAGMKPPKIEITIEVVEKDGELYVRVKIKLENGEEIEIVMSLDEVKELLKKLFPEITEIEVEEVRLPPKSAG [r5_25_TrROS_Hall] | 4.09 ± 0.18 kcal/mol | 3.74 ± 0.5 kcal/mol | 2.39 ± 0.12 kcal/mol |
| SEKLTEEEVEKLAEELAKELEEETGKKVTVEVEVEKVEVEKDGEKEEVEVVRIKITVDPETGEVTIEVEPSA [r9_9_TrROS_Hall] | 1.43 ± 0.2 kcal/mol | 1.56 ± 0.45 kcal/mol | 1.49 ± 0.11 kcal/mol |
| SAGSKTISISVPGNWNIEELKAFLSTLPDNVTVYIFYPNKVYVGTVDKKNINLSADSSYDGFKVLVVVPSAG [r5_373_TrMRF] | 3.12 ± 0.028 kcal/mol | 2.84 ± 0.083 kcal/mol | 2 ± 0.06 kcal/mol |
| SAGGSAGGSAPGKSITITFLFIWPDGWILVMKITFDPDGPGDIDIEWQWIPIPPPEPPPEDPSAGGSAGGSA [r18_409_TrROS] | 5.37 ± 0.32 kcal/mol | 5.16 ± 0.46 kcal/mol | 3.61 ± 0.29 kcal/mol |
| SAGMKPGDMRPVEIPFEIYQYDDGGPKPVAPMTIKIMVNPDEGYVMLEIENPGNGEPVIIFTLPADDISAGG [r19_413_TrROS] | 2.42 ± 0.057 kcal/mol | 2.16 ± 0.1 kcal/mol | 1.65 ± 0.055 kcal/mol |
| SAGGSAGGKKYRVVVYNPETGEWVEVEEVEFDPETGEVRVRLPGSGKEVTIPKDYPVYLNPELDSAGGSAGG [r6_884_TrMRF] | 3.163 ± 0.03 kcal/mol | 2.9 ± 0.045 kcal/mol | 2.21 ± 0.035 kcal/mol |
| SAGGSAGGSAGGMPLTLTSETVTVERDPTSNNVVTTTTTTYKLPNGTLVTVTTTTTSPTTSAGGSAGGSAGG [r7_267_JUSTAS] | 2.21 ± 0.034 kcal/mol | 2.33 ± 0.06 kcal/mol | 2.38 ± 0.1 kcal/mol |
| SAGGSAGGGNWERVEFTFTKRVYDPKNGKPMKDVMVEIDVYRDPNEGALEIEIEMPPGFDYIMISAGGSAGG [r6_206_TrROS] | 4.23 ± 0.23 kcal/mol | 3.93 ± 0.29 kcal/mol | 2.79 ± 0.28 kcal/mol |
| SAGGSASLQTSTASVSPGALEKAIEAAKAAPPGTAVSVSFGDPVVGTPRPVTLTVDSAGNLVEITGSAGGSA [r15_228_JUSTAS] | 0.0446 ± 0.08 kcal/mol | 0.188 ± 0.097 kcal/mol | 0.376 ± 0.029 kcal/mol |
| SAGGSAGGSAPVFLRVEVENPNGERFELTAKLGDPIEIDPSVVDNVKVEVFDPDGNKAEFELNSAGGSAGGS [r12_380_TrMRF] | 0.611 ± 0.057 kcal/mol | 0.506 ± 0.069 kcal/mol | 0.284 ± 0.042 kcal/mol |
| SAGMVEVTVTIIPKKVKDKWVNEAVVSITVPGGPTSTITMPFGSKEEAIKYLKEKGLEVSEENVSVEIESAG [r5_233_JUSTAS] | 3.395 ± 0.028 kcal/mol | 3.23 ± 0.097 kcal/mol | 2.31 ± 0.12 kcal/mol |
| SAGGSAGGSAGGKIKLTVEKTEDGYLRVTAEDEDTKETVVITLPKGTTLEEALKLLKELSAGGSAGGSAGGS [r10_825_TrROS_Hall] | 3.08 ± 0.14 kcal/mol | 3.19 ± 0.17 kcal/mol | 3.14 ± 0.11 kcal/mol |
| SAGGSAGGSAGGMKIKNAEIVEVKEENGKKTLLVKNKETGKYYKITIDDNKITIEEVKVPSAGGSAGGSAGG [r7_940_TrROS_Hall] | 4.13 ± 0.13 kcal/mol | 3.87 ± 0.52 kcal/mol | 2.21 ± 0.32 kcal/mol |
| SAGGGMTVTIEVEGSIKKSIKGISYKDDKEKKESNKNKYLKKTITVTLTAEDDPNAAAAAIAALGLGSAGGS [r16_467_JUSTAS] | 0.313 ± 0.21 kcal/mol | 0.181 ± 0.25 kcal/mol | 0.144 ± 0.23 kcal/mol |
| SAGKKKKVVITIKVEKSEEEVKELVKKLAEEAKKKGKEVVIKIEVDGKTYEFTLEDIKKLPPNAKVTLLSAG [r5_626_TrROS_Hall] | 1.67 ± 0.096 kcal/mol | 1.58 ± 0.44 kcal/mol | 1.56 ± 0.11 kcal/mol |
| SGVEYIEIPLEVTLDAPLEKAFEFLEDLAEEFGLGDIEVLEVEVDPETGKVRVKALARIAIAPPPPPSLESA [r9_918_TrMRF] | 3.53 ± 0.11 kcal/mol | 3.19 ± 0.17 kcal/mol | 2.83 ± 0.044 kcal/mol |
| SAPVVVVETIPDGGVLIVPAVFEPDKLLEYVEEIVNKIKPKGAEVEAKVIKVEPFEDFVVVTFEVKVKPSAG [r14_345_TrMRF] | 1.7 ± 0.032 kcal/mol | 1.68 ± 0.16 kcal/mol | 1.69 ± 0.12 kcal/mol |

| Sequence | folding stability dG unfold [1] | folding stability dG unfold [2] | folding stability dG unfold [3] |
| --- | --- | --- | --- |
| SAGAMPPVVEVAPVEGEGLLRVTVPVPTSDVVRVTVDLGDRRLEYTLPRDASLEVSTADAEVRVAVELVSAG [r14_96_JUSTAS] | 0.639 ± 0.1 kcal/mol | 0.638 ± 0.056 kcal/mol | 0.5 ± 0.031 kcal/mol |
| SAVTLLSTEFVPEEGVVRLLFERPAPPDTTTFTFSVSVNGYPIESISLSVDPATNTATATATAKVPPGLSAG [r14_244_JUSTAS] | 4.1 ± 0.11 kcal/mol | 3.2 ± 0.22 kcal/mol | 2.42 ± 0.16 kcal/mol |
| SAGGSAGGSAGSTTTTITDPANGEAYEVTSDPNGGATITNPNSSQVYYKNADTITSVGASSAGGSAGGSAGG [r17_476_JUSTAS] | -0.198 ± 0.49 kcal/mol | -0.0736 ± 0.19 kcal/mol | -0.263 ± 0.087 kcal/mol |
| SAGGSAGGSAGPSYIAVVEFENGERPVYLFPPNTGKLEDIVEELKKKFPSLKKITIYPAPSAGGSAGGSAGG [r11_311_TrMRF] | 3.01 ± 0.16 kcal/mol | 3.33 ± 0.087 kcal/mol | 3.58 ± 0.17 kcal/mol |
| SAGGSAGGSAGMVIEDPSGVTTVVTFDTSVPVVTTTTLTKDPNSNNYTTTTTTTPVTVPVSAGGSAGGSAGG [r17_491_JUSTAS] | 0.725 ± 0.11 kcal/mol | 1.06 ± 0.073 kcal/mol | 1.34 ± 0.099 kcal/mol |
| SAGGSAGGSAGGYVGPDQPVIIVEVKVKGARIGKDGKIYYDFEVERIEIREVEEGDNLGSAGGSAGGSAGGS [r10_826_TrMRF] | 1.9 ± 0.088 kcal/mol | 1.82 ± 0.17 kcal/mol | 2.05 ± 0.21 kcal/mol |
| SAEYTPVGPNEDAEVWEVPNLGKLFTIDPKDDVVEITEVHFDDGDLSPHPHTVRVDVPEEDRDRLRDLLSAG [r14_245_TrMRF] | -1.11 ± 0.58 kcal/mol | -0.213 ± 0.14 kcal/mol | 0.0643 ± 0.06 kcal/mol |
| SAGGPLTLTIPLPDGTTITVTLTRNPDTPSYTATADITFPDGSVVRIHATINSDGSITIHSVEVFPASAGGS [r16_213_TrMRF] | 5.06 ± 0.24 kcal/mol | 5.19 ± 0.18 kcal/mol | 4.51 ± 0.57 kcal/mol |
| SAGGSAGGGMTPEEARALAEAAGYEDVEVTVLSRDPENNVTVVEVTARAPGGGGAASVGTYTAPSAGGSAGG [r6_699_JUSTAS] | -0.245 ± 0.27 kcal/mol | -0.396 ± 0.18 kcal/mol | -0.77 ± 0.21 kcal/mol |
| SMSPEARALARELAERLRELFPGAEIEIRVEVEVNEDGEVTIRVEIRVRPAPPPEVRVVRDEDGRERRLRSA [r9_82_TrROS_Hall] | 2.04 ± 0.04 kcal/mol | 1.8 ± 0.074 kcal/mol | 1.09 ± 0.1 kcal/mol |
| SAGSMKTVVRVEKEVDPSTGKITITEEIEDKVYTTTMDLNPETGDATSTVTYPDSTIGTTTVPISSISSSAG [r5_415_JUSTAS] | 0.706 ± 0.052 kcal/mol | 0.432 ± 0.067 kcal/mol | -0.155 ± 0.024 kcal/mol |
| SAGGSAGGSAGKKTVVIKDAEIVEVEEENGYLKVRIKVTNPDGSEEEFTFTFKPGDVIELSAGGSAGGSAGG [r11_211_TrROS_Hall] | 3.11 ± 0.059 kcal/mol | 2.71 ± 0.17 kcal/mol | 2.01 ± 0.07 kcal/mol |
| SAGGLKEIAKQLGPGADKVEIEWEPQPHDDMEMYRWKIRVKNPNNGKKRKLEVSIMYDPNGNIRSIMISAGG [r13_358_TrROS] | 2.38 ± 0.077 kcal/mol | 2.34 ± 0.14 kcal/mol | 1.85 ± 0.12 kcal/mol |
| SAGGMKPGEKTIRLLLKLPPGEELTPEQVEELAKRLAEELREKGYEVEVEVVERDGELYVLVEVRFPESAGG [r13_442_TrROS_Hall] | 4.275 ± 0.034 kcal/mol | 4.1 ± 0.044 kcal/mol | 3.55 ± 0.1 kcal/mol |
| SAGGEEIEAEVVEVRTFTLENGFEVTTTLIRVDGKLILITSVKKTKNGKWEVVEVKELPLEELSPEELSAGG [r13_494_TrROS_Hall] | 2.73 ± 0.035 kcal/mol | 2.93 ± 0.14 kcal/mol | 3.35 ± 0.14 kcal/mol |
| SAGGPPWVRVVDVRIEPVEDGGERRITLTFPPDVTLEEVRERVREMLPPGAEAELTVERVEVRPVLASAGGS [r16_393_JUSTAS] | 1.56 ± 0.019 kcal/mol | 1.49 ± 0.04 kcal/mol | 1.27 ± 0.016 kcal/mol |
| SAGGSAGGSAMKYTVTVTLPNGTTLTLDVGTETEEEAVSETKKLIAEKYPDVKGAKIDLTKESAGGSAGGSA [r18_434_JUSTAS] | 2.52 ± 0.038 kcal/mol | 2.33 ± 0.13 kcal/mol | 1.88 ± 0.11 kcal/mol |
| SSKIKEFIIKLPEKNKYYKIIVTPTEIYIYDENGKKIKKFSIPKNKKIKKIDIKIDKKKNKLIIKVYLEKSA [r9_939_TrMRF] | 4.54 ± 0.098 kcal/mol | 4.42 ± 0.21 kcal/mol | 4.14 ± 0.23 kcal/mol |
| SAGGSAGGSATTTTAPDGSPVTVYPETGVARVYDPATGLWTRLTTRPDGVVEETPLPPGAPLESAGGSAGGS [r12_997_JUSTAS] | 0.6 ± 0.079 kcal/mol | 0.307 ± 0.068 kcal/mol | -0.687 ± 0.23 kcal/mol |
| SAGEKKIKIEIKEIKPHENGYLSIKAKAYLEDGKKVAEVYEPYPPNLSLEELIEKVIERLEKEVKEKGESAG [r5_697_TrMRF] | -0.207 ± 0.18 kcal/mol | 0.22 ± 0.21 kcal/mol | 0.445 ± 0.039 kcal/mol |
| SAGGSAGGSAGGSGMTLPIPLSELTTEEIRELTKPDEDLVIKTEEDEPVVIPYGEIKPESAGGSAGGSAGGS [r4_382_JUSTAS] | -1.05 ± 0.3 kcal/mol | 0.204 ± 0.077 kcal/mol | 0.694 ± 0.07 kcal/mol |
